Results taken from patent EP4177273A1.

Tests used:
[1] = biological target: human Claudin 18 splice variant 2 (CLDN18.2) (human); assay: cell-based or functional assay
[2] = biological target: human Claudin 18 splice variant 2 (CLDN18.2) (human); assay: FACS with FITC-labeled IMAB362 on HPAC-LVT cells 2 days after transduction with human CLDN18.2
[3] = biological target: human Claudin 18 splice variant 2 (CLDN18.2) (human); assay: FACS with FITC-labeled IMAB362 on Suit2-LVT cells 2 days after transduction with human CLDN18.2
[4] = biological target: human Claudin 18 splice variant 2 (CLDN18.2) (human); assay: FACS with FITC-labeled IMAB362 on BxPC3-LVT cells 2 days after transduction with human CLDN18.2
[5] = biological target: human Claudin 18 splice variant 2 (CLDN18.2) (human); assay: FACS with FITC-labeled IMAB362 on DANG-LVT cells 2 days after transduction with human CLDN18.2
[6] = biological target: human Claudin 18 splice variant 2 (CLDN18.2) (human); assay: FACS with FITC-labeled IMAB362 on YAPC-LVT cells 2 days after transduction with human CLDN18.2
[7] = biological target: human Claudin 18 splice variant 2 (CLDN18.2) (human); assay: FACS with FITC-labeled IMAB362 on MiaPaCa-2-LVT cells 2 days after transduction with human CLDN18.2
[8] = biological target: human Claudin 18 splice variant 2 (CLDN18.2) (human); assay: FACS, 2E5 Patu8988S cells/100 µl stained with 50 µg/ml IMAB362
[9] = biological target: human Claudin 18 splice variant 2 (CLDN18.2) (human); assay: FACS with FITC-labeled IMAB362 on Patu8902-LVT cells 2 days after transduction with human CLDN18.2
[10] = biological target: human Claudin 18 splice variant 2 (CLDN18.2) (human); assay: FACS with FITC-labeled IMAB362 on CAPAN1-LVT cells 2 days after transduction with human CLDN18.2
[11] = biological target: human Claudin 18 splice variant 2 (CLDN18.2) (human); assay: FACS, 2E5 Panc05.04 cells/100 µl stained with 50 µg/ml IMAB362

Substance: IMAB362 (antibody)
- ADCC EC50 (ng/ml), BxPC3 LVT cells, human PBMC E:T 40:1 [1]: 47.7 ng/mL
- ADCC EC50 (ng/ml), CAPAN1-LVT cells, human PBMC E:T 40:1 [1]: 65 ng/mL
- ADCC EC50 (ng/ml), DANG cells (endogenous CLDN18.2), human PBMC E:T 40:1 [1]: 4980 ng/mL
- ADCC EC50 (ng/ml), DANG-LVT cells, human PBMC E:T 40:1 [1]: 52.3 ng/mL
- ADCC EC50 (ng/ml), HPAC-LVT cells, human PBMC E:T 40:1 [1]: 117 ng/mL
- ADCC EC50 (ng/ml), MiaPaCa2-LVT cells, human PBMC E:T 40:1 [1]: 23.4 ng/mL
- ADCC EC50 (ng/ml), Panc05.04 cells (endogenous CLDN18.2), human PBMC E:T 40:1 [1]: 5730 ng/mL
- ADCC EC50 (ng/ml), Patu8902-LVT cells, human PBMC E:T 40:1 [1]: 49.2 ng/mL
- ADCC EC50 (ng/ml), Patu8988S cells (endogenous CLDN18.2), human PBMC E:T 40:1 [1]: 175 ng/mL
- ADCC EC50 (ng/ml), Suit2-LVT cells, human PBMC E:T 40:1 [1]: 73.2 ng/mL
- ADCC EC50 (ng/ml), YAPC-LVT cells, human PBMC E:T 40:1 [1]: 29.5 ng/mL
- ADCC EC50, DANG/Panc05.04 cells, PBMCs of different donors [1]: 0.1 to 38 µg/mL
- ADCC EC50, Patu8988S cells, PBMCs of different donors [1]: 0.01 to 1.4 µg/mL
- ADCC Max. lysis (%), BxPC3 LVT cells, human PBMC E:T 40:1 [1]: 90.6%
- ADCC Max. lysis (%), CAPAN1-LVT cells, human PBMC E:T 40:1 [1]: 92.6%
- ADCC Max. lysis (%), DANG cells (endogenous CLDN18.2), human PBMC E:T 40:1 [1]: 52.5%
- ADCC Max. lysis (%), DANG-LVT cells, human PBMC E:T 40:1 [1]: 85.9%
- ADCC Max. lysis (%), HPAC-LVT cells, human PBMC E:T 40:1 [1]: 76.2%
- ADCC Max. lysis (%), MiaPaCa2-LVT cells, human PBMC E:T 40:1 [1]: 78.1%
- ADCC Max. lysis (%), Panc05.04 cells (endogenous CLDN18.2), human PBMC E:T 40:1 [1]: 67.1%
- ADCC Max. lysis (%), Patu8902-LVT cells, human PBMC E:T 40:1 [1]: 74.1%
- ADCC Max. lysis (%), Patu8988S cells (endogenous CLDN18.2), human PBMC E:T 40:1 [1]: 70.1%
- ADCC Max. lysis (%), Suit2-LVT cells, human PBMC E:T 40:1 [1]: 81.2%
- ADCC Max. lysis (%), YAPC-LVT cells, human PBMC E:T 40:1 [1]: 91.5%
- CDC EC50 (ng/ml), CAPAN1-LVT cells, human serum pool [1]: 970 ng/mL
- CDC EC50 (ng/ml), MiaPaCa2-LVT cells, human serum pool [1]: 340 ng/mL
- CDC EC50 (ng/ml), Patu8902-LVT cells, human serum pool [1]: 291 ng/mL
- CDC EC50, MiaPaCa-2-LVT cells pretreated with gemcitabine [1]: 4.68 µg/mL
- CDC EC50, MiaPaCa-2-LVT, Suit2-LVT and CAPAN1-LVT cells, human serum [1]: 0.3 to 2.6 µg/mL
- CDC EC50, medium cultivated MiaPaCa-2-LVT cells [1]: 7.67 µg/mL
- CDC Max. lysis (%), CAPAN1-LVT cells, human serum pool [1]: 79.1%
- CDC Max. lysis (%), MiaPaCa2-LVT cells, human serum pool [1]: 78.4%
- CDC Max. lysis (%), Patu8902-LVT cells, human serum pool [1]: 76.7%
- Transduction efficiency (% cells positive) [2]: 97.3%
- Transduction efficiency (% cells positive) [3]: 92.2%
- Transduction efficiency (% cells positive) [4]: 92.8%
- Transduction efficiency (% cells positive) [5]: 87.5%
- Transduction efficiency (% cells positive) [6]: 82.2%
- Transduction efficiency (% cells positive) [7]: 96.3%
- CLDN18 surface expression (FACS), % positive cells [8]: 81.7%
- Transduction efficiency (% cells positive) [9]: 93%
- Transduction efficiency (% cells positive) [10]: 89.6%
- CLDN18 surface expression (FACS), % positive cells [11]: 15%
